Measured values reported in US20180282719A1 (published 2018).

T1: recombinant soluble human IL-6 receptor (SR344) (human, UniProt P08887 20-344, biotinylated (sites not given) where immobilized via streptavidin or used in phage ELISA)
T1 construct: also called soluble IL-6 receptor; membrane-type IL-6 receptor (when biotinylated and immobilized on the chip)
T1 sequence (looked up): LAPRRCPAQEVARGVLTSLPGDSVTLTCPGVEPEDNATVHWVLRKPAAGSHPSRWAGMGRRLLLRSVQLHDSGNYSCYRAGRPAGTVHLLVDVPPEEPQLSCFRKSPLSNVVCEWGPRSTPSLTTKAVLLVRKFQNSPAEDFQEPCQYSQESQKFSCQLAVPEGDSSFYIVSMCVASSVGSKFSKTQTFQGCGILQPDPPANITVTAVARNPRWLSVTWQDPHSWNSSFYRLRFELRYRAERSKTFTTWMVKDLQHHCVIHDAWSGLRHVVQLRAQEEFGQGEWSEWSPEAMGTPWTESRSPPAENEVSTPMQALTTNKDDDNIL


Columns and labels:
[1] = target: T1, recombinant soluble human IL-6 receptor …; assay: SPR Biacore T100, antibody on protein A/G chip, SR344 analyte, pH 5.8, 37 C
Method: (§1) Kinetic analysis of antigen-antibody reactions at pH 7.4 and pH 5.8 was carried out using a Biacore T100™ surface plasmon resonance system (GE Healthcare) for the four types of antibodies prepared: WT-IgG1, H54/L28-IgG1, H170/L82-IgG1, and Fv4-IgG1 (buffer: 10 mM MES (pH 7.4 or pH 5.8), 150 mM NaCl, 0.05% Surfactant P20 (polyoxyethelene sorbitan monolaurate)). The antibodies were bound to a sensor chip on which recomb-protein A/G (Pierce) was immobilized by amine coupling, and SR344 adjusted to an appropriate concentration was injected therein as an analyte. The association with and dissociation from SR344 of each type of antibody were observed on a real-time basis. All the measurements were carried out at 37° C. Association rate constants kₐ (1/Ms) and dissociation rate constants kd (1/s) were calculated using Biacore T100™ Evaluation Software (GE Healthcare), and dissociation constants KD (M) were calculated based on those values (Table 17).

[2] = target: T1, recombinant soluble human IL-6 receptor …; assay: SPR Biacore T100, antibody on protein A/G chip, SR344 analyte, pH 7.4, 37 C
Method: as §1

[3] = target: T1, recombinant soluble human IL-6 receptor …; assay: SPR Biacore T100, biotinylated SR344 on streptavidin chip (model of membrane-type IL-6 receptor), antibody 0.25 ug/mL as analyte, bound at pH 7.4, dissociation at pH 5.8, 37 C
Method: Binding to the membrane-type IL-6 receptor was evaluated by evaluating binding to the IL-6 receptor immobilized on a sensor chip. SR344 was biotinylated in accordance with a method known among persons with ordinary skill in the art, and the biotinylated SR344 was immobilized on the sensor chip via streptavidin using the affinity between streptavidin and biotin. All the measurements were carried out at 37° C. The mobile phase buffer was 10 mM MES (pH 5.8), 150 mM NaCl and 0.05% TWEEN® 20 (polyoxyethelene sorbitan monolaurate).
The pH-dependently-binding clones were injected under the condition of pH 7.4 to allow them to bind to SR344, and then, the pH-dependent dissociation of each clone at the pH of the mobile phase, pH 5.8, was observed. The results are shown in FIG. 21 (results for Fv1-M71, Fv1-M73, Fv3-M71, and Fv3-M73 are shown in FIG. 21, while results for other clones are shown in FIGS. 17 and 19). Analyses were carried out in the same manner as in Example 10 and the pH dependencies of the dissociation rate constants of all of the eleven types of clones are shown in Table 12.

[4] = target: T1, recombinant soluble human IL-6 receptor …; assay: SPR Biacore T100, biotinylated SR344 on streptavidin chip (model of membrane IL-6 receptor), antibody 0.5 ug/mL as analyte, bound at pH 7.4, dissociation at pH 7.4, 37 C
Method: The binding to membrane IL-6 receptor was evaluated by evaluating the binding to the IL-6 receptor immobilized onto a sensor chip. SR344 was biotinylated according to a method known to persons skilled in the art, and the biotinylated SR344 was immobilized on the sensor chip via streptavidin by utilizing the affinity between streptavidin and biotin. All the measurements were carried out at 37° C., and the mobile phase buffer contained 10 mM MES (pH 5.8), 150 mM NaCl and 0.05% TWEEN® 20 (polyoxyethelene sorbitan monolaurate). The pH-dependent binding clones were injected therein under the condition of pH 7.4 and allowed to bind to SR344 (injection sample buffer: 10 mM MES (pH 7.4), 150 mM NaCl, 0.05% TWEEN® 20 (polyoxyethelene sorbitan monolaurate)), and the pH-dependent dissociation of each clone at the mobile phase pH of 5.8 was observed (FIG. 10).
The dissociation rate […]) at pH 5.8 was calculated using Biacore T100™ Evaluation Software (GE Healthcare) by fitting only the dissociation phase at pH 5.8, where 0.5 μg/mL of the sample was bound in 10 mM MES (pH 7.4), 150 mM NaCl, and 0.05% TWEEN® 20 (polyoxyethelene sorbitan monolaurate), and dissociated in 10 mM MES (pH 5.8), 150 mM NaCl, and 0.05% TWEEN® 20 (polyoxyethelene sorbitan monolaurate). Similarly, the dissociation rate (kd(1/s)) at pH 7.4 was calculated using Biacore T100™ Evaluation Software (GE Healthcare) by fitting only the dissociation phase at pH 7.4, where 0.5 μg/mL of the sample was bound in 10 mM MES (pH 7.4), 150 mM NaCl, and 0.05% TWEEN® 20 (polyoxyethelene sorbitan monolaurate), and dissociated in 10 mM MES (pH 7.4), 150 mM NaCl, and 0.05% TWEEN® 20 (polyoxyethelene sorbitan monolaurate).

| Kd [1] | koff [1] | kon [1] | Kd [2] | koff [2] | kon [2] | koff [3] | koff [4] | Binder |
| --- | --- | --- | --- | --- | --- | --- | --- | --- |
| 26 nM | 0.037 s⁻¹ | 1.4e+06 M⁻¹ s⁻¹ | 0.97 nM | 0.00095 s⁻¹ | 980000 M⁻¹ s⁻¹ | 0.0026 s⁻¹ | – | Fv4-IgG1 (antibody, VH3-IgG1 / VL3-CK) heavy: not shown light: DIQMTQSPSSLSASVGDSVTITCQASTDISSHLNWYQQKPGKAPELLIYYGSHLLSGVPSRFSGSGSGTDFTFTISSLEAEDAATYYCGQGNRLPYTFGQGTKVEIERTVAAPSVFIFPPSDEQLKSGTASVVCLLNNFYPREAKVQWKVDNALQSGNSQESVTEQDSKDSTYSLSSTLTLSKADYEKHKVYACEVTHQGLSSPVTKSFNRGEC |
| 3.1 nM | 0.0027 s⁻¹ | 890000 M⁻¹ s⁻¹ | 1.9 nM | 0.00094 s⁻¹ | 490000 M⁻¹ s⁻¹ | 0.00025 s⁻¹ | 0.000484 s⁻¹ | humanized PM1 antibody (wild type, WT) (antibody, human IgG1, kappa, V domains shown, IgG1; also called WT-IgG1; wild type humanized anti-IL-6 receptor antibody) VH: QVQLQESGPGLVRPSQTLSLTCTVSGYSITSDHAWSWVRQPPGRGLEWIGYISYSGITTYNPSLKSRVTMLRDTSKNQFSLRLSSVTAADTAVYYCARSLARTTAMDYWGQGSLVTVSS VL: DIQMTQSPSSLSASVGDRVTITCRASQDISSYLNWYQQKPGKAPKLLIYYTSRLHSGVPSRFSGSGSGTDFTFTISSLQPEDIATYYCQQGNTLPYTFGQGTKVEIKR |
| – | – | – | – | – | – | 0.00067 s⁻¹ | 0.000344 s⁻¹ | H3pI/L73 (antibody, IgG1, V domains shown, tested as IgG1; also called H3pI/L73-IgG1; H3pl/L73) VH: QVQLQESGPGLVKPSETLSLTCAVSGHSISHDHAHSWVRQPPGEGLEWIGYISYSGITNYNPSLKGRVTISRDTSKNQFSLKLSSVTAADTAAYYCARSLARTTAMDYWGEGTLVTVSS VL: DIQMTQSPSSLSASVGDSVTITCQASQHISSHLNWYQQKPGKAPELLIYYGSHLHSGVPSRFSGSGSGTDFTFTISSLEAEDAATYYCGQGNRLPYTFGQGTKVEIE |
| 100 nM | 0.013 s⁻¹ | 120000 M⁻¹ s⁻¹ | 1.6 nM | 0.0011 s⁻¹ | 670000 M⁻¹ s⁻¹ | – | 0.00077 s⁻¹ | H170/L82 (antibody, IgG1, V domains shown, expressed and purified as IgG (IgG1); also called H170/L82-IgG1) VH: QVQLQESGPGLVKPSETLSLTCAVSGHSISHHHAHSWVRQPPGEGLEWIGYISYSGITHYNPHLKGRVTISRDTSKNQFSLKLSSVTAADTAAYYCARVLARITAMDHWGEGTLVTVSS VL: DIQMTQSPSSLSASVGDSVTITCQASQDISSHLNWYQQKPGKAPELLIYYGSHLHSGVPSRFSGSGSGTDFTFTISSLEAEDAATYYCGQGNRLPYTFGQGTKVEIE |
